# Target: ABCA1 (Homo sapiens, UniProt O95477)
# Experiment: Chemical cross-linking of ABCA1, dimer:monomer ratio (SDS-PAGE)
# Format: cell-based
# Design: expressed in transfected cells; host or cells: BHK cells, stably transfected, induced with 10 nM mifepristone
# Experimental: Supplementary file pone.0131997.s004.tif: S3 Fig Chemical cross-linking of ABCA1 in intact BHK cells expressing ABCA1. BHK cells in 100-mm diameter dishes were stimulated with 10 nM mifepristone for 18–20 h. BHK cells expressing ABCA1 (100 μg of total protein) in the presence of apo A-I or CS-6253 at same molarity (0.96 μM) were cross-linked or not with 500 μM DSP. Cells were then lysed at 4°C with lysis buffer containing 0.5% n-dodecylmaltoside in the presence of a protease inhibitor mixture followed by low speed centrifugation to remove cell debris. The supernatants were treated or not with 50 mM DTT for 30 min at 37°C and then separated by SDS-PAGE (4–22.5%) in duplicate. After electrophoresis, ABCA1 was detected by an anti-ABCA1 antibody. GAPDH was used as loading control. (TIF) Click here for additional data file. […]
# Sequence of ABCA1 (O95477 whole entry): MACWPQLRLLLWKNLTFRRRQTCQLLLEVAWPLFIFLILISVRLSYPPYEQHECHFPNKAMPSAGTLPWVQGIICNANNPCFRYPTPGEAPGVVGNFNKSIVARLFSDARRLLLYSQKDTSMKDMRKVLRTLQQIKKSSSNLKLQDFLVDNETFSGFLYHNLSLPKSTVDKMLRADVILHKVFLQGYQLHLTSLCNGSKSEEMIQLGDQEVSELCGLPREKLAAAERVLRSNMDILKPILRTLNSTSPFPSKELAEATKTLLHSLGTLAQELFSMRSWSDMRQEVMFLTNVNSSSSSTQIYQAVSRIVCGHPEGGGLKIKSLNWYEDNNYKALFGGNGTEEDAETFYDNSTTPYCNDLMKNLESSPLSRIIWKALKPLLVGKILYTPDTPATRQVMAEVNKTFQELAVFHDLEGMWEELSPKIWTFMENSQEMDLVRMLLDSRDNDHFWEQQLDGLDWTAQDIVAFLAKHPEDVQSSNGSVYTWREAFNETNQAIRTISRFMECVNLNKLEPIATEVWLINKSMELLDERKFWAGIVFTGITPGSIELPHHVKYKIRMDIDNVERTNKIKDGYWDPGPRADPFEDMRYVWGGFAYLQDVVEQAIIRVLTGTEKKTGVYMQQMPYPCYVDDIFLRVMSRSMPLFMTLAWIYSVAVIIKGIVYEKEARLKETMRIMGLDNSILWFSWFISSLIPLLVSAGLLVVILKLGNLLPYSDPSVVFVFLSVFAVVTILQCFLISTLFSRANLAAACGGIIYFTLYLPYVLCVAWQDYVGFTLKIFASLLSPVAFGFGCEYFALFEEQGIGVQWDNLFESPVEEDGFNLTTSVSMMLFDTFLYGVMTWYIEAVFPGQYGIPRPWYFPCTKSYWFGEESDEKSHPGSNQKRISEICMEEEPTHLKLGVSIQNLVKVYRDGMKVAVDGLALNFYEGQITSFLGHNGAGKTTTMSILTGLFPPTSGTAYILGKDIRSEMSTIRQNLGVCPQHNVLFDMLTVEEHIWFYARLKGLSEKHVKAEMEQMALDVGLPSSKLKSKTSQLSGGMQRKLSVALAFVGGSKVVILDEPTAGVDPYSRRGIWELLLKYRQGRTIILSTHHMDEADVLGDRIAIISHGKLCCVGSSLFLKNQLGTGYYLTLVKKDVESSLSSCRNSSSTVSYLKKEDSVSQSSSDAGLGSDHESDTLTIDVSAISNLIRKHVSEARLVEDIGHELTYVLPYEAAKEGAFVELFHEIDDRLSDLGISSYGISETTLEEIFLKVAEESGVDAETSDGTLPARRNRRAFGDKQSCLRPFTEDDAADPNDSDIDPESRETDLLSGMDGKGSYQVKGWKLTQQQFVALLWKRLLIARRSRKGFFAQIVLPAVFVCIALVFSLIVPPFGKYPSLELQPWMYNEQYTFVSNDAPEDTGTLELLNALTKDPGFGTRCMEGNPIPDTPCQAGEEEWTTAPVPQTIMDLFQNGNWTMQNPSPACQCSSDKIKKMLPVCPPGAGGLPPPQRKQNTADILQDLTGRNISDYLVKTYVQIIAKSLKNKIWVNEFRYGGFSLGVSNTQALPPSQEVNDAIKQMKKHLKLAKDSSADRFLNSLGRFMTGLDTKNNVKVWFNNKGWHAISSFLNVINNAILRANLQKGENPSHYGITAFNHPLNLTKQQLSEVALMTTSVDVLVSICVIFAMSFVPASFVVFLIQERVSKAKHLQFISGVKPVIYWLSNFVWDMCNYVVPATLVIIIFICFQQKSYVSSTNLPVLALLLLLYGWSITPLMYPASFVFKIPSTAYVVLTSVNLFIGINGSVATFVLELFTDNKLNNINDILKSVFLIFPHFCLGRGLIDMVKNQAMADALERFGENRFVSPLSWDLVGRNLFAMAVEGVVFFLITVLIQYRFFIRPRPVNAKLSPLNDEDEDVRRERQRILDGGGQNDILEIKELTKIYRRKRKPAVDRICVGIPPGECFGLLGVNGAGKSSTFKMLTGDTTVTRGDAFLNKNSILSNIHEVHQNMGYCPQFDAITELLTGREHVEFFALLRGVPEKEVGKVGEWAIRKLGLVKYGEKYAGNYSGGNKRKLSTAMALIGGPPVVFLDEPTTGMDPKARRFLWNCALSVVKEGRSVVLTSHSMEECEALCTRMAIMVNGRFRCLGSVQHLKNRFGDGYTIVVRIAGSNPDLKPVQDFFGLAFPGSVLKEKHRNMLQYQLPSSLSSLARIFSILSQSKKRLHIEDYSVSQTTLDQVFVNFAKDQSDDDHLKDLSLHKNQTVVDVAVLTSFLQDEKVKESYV
substance,measurement,setting,value
apolipoprotein A-I [apo A-I],ratio of ABCA1 dimer: monomer,"0.93 μM (appendix) / 0.96 μM (S3 Fig), DSP 500 μM, densitometry",69.22%±0.25
same,effect on ABCA1 oligomerization (in words),"BHK-ABCA1, DSP cross-linking",causes ABCA1 dimer formation

# — publication PMC4514675, “Novel Apo E-Derived ABCA1 Agonist Peptide (CS-6253) Promotes Reverse Cholesterol Transport and Induces Formation of preβ-1 HDL In Vitro” (PLoS ONE, 2015)
